The results in this text go back to publication PMC12746149, “Gluebodies Offer a Route To Improve Crystal Reliability and Diversity through Transferable Nanobody Mutations That Introduce Constitutive Close Contacts” (ACS Central Science, 2025).

In test [1] the target is T1, MPP8 chromodomain (residues 53-117) (UniProt Q99549).
T1 construct: MPP8, the region corresponding to the chromodomain, residues 53-117, in a modified pET30 vector; not shown: His tag, N-terminal, cleaved
The test can be described thus: crystal structure; MPP8 and 3A02 gluebody combined 1:1.2, complex isolated on Superdex 75 in 20 mM Hepes pH 7.5, 80 mM NaCl; vapor diffusion at 18 °C, 100 mM sodium acetate, 25% PEG 3000. As to conditions: both partners purified.

The target of test [2] is T2, truncated RECQL5 protein (11-453) (UniProt O94762).
T2 construct: RECQL5, residues 11-453, in pNIC-Bsa4; source: E. coli BL21-DE3-pRARE, purified (Ni-NTA, TEV cleavage, reverse Ni-NTA); not shown: His6, N-terminal, cleaved
T2 sequence (O94762 11-453): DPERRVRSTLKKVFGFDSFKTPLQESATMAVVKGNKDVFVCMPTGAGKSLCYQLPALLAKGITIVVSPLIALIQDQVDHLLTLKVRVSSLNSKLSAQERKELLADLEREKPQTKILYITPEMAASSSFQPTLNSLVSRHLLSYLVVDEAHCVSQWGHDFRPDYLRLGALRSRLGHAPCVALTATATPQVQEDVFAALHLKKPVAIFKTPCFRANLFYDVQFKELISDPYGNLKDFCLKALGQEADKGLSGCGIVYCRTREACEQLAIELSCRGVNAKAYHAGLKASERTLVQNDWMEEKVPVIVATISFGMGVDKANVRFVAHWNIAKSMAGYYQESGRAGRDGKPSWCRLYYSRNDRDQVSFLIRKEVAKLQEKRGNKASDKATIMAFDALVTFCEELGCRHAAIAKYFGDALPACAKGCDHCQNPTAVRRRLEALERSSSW
The test can be described thus: SEC; purified nanobody variants run with RECQL5 on size exclusion chromatography; comigration. Conditions: both partners purified.

Test [3] has as its target T2, truncated RECQL5 protein (11-453). The test can be described thus: crystal structure; RECQL5 and nanobody mixed 1:1.5, complex isolated by SEC, Hampton Index screen; molecular replacement with PDB 5LB8 and chain A of 2X1O. As to conditions: both partners purified.
Test [4] deals with T3, MAGEB1 (UniProt P43366).
T3 construct: MAGEB1
T3 sequence (P43366 whole entry): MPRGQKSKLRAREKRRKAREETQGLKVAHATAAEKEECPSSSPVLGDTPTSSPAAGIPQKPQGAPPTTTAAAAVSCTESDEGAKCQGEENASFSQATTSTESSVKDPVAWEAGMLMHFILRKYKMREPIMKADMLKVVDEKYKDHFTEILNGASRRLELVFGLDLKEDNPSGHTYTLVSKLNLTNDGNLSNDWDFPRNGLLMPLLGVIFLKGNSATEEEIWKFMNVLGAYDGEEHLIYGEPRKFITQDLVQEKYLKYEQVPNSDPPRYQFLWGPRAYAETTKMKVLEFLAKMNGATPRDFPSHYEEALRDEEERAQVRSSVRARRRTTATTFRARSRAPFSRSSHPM
In words: crystal structure; nanobody-target complex in two commercial coarse screens (192 conditions, two temperatures). As to conditions: both partners purified.

Test [5] concerns the target T3, MAGEB1.

Positions count from the first letter of the chain named. Names may count otherwise. Like-named read-outs stand apart in the source and are kept apart here.

T1 sequence (Q99549 53-117): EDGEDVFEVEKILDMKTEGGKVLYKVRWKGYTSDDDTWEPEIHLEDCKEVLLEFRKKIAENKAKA

B1: 3A02 gluebody (Nb 3A02 nanobody with the Gluebody mutations S7N, Q14K and T125M) (VHH)
VHH: QVQLQENGGGLVKPGGSLRLSCAASGFTLSDYVMTWVRQAPGKGPEWVSRISAGGSTRYVDSVKGRFTISRDNAKNTMYLQMNSLKPEDTAVYYCARGSTLFSTNWDYRGQGTQVMVS
notes: Nb 3A02 with three stated mutations; the mutated chain is in PDB 9H77; also called Gb; not shown: His tag, N-terminal, cleaved
For the molecule B1, the binding result in test [1] is “binds”.

B2: RECQL5 nanobody variant G1-001 (VHH)
VHH: QVQLQESGGGLVQAGGSLRLSCAASGSIFSINRMGWYRQAPGKQRELVAAITSGGSTNYAYSVKGRFTISRDNAKNTVYLQMNSLKPEDTAIYYCEAYGTYTLAPTGEGEYDDYWGQGTQVTVSA
notes: the mutated chain is in PDB 7ZML; numbers count on: IMGT numbering; six-residue tail left after TEV cleavage of the C-terminal 6xHis tag; vector pNIC-CTH0; source: E. coli KRX, purified (Ni-NTA, TEV cleavage, reverse Ni-NTA); not shown: His6, C-terminal, cleaved
As for B2, the binding result in test [2] was “binds”.

B3: RECQL5 nanobody variant G2-001 (VHH)
VHH: B2 VHH with S7N, L11C
notes: as the chain of m3 (G1-001, D69Y) with S7N:L12C; the mutated chain is in PDB 7ZMM; numbers count on: IMGT numbering; six-residue tail left after TEV cleavage of the C-terminal 6xHis tag; vector pNIC-CTH0; made by mutagenesis from G1-001; source: E. coli KRX, purified (Ni-NTA, TEV cleavage, reverse Ni-NTA); not shown: His6, C-terminal, cleaved
Take B3: the binding result in test [3] is “binds”.

B4: nanobody of the MAGEB1 complex (PDB 6R7T) (VHH)
VHH: QVQLQESGGGLVQPGGSLRLSCAASGFTFSTYAMSWFRQAPGKGLEWVASINSSGGGIQSYADSVKGRFTISRDNAKNTLYLQMNSLEPEDTAVYYCAAAAWRVGTYDYRGQGTQVTVSS
notes: naïve (not engineered) nanobody scaffold
With B4, the binding result with MAGEB1 [4] is listed as “binds”.

B5: RECQL5 nanobody variant G4-043 (VHH)
VHH: QVQLVENGGGCVQATGSLRLSCAASGSIFSINRMTWYRQAPGKEREWVAAITSGGSTNYADSVKGRFTISRDSAKGTVYLQMNSLKPEDTAVYYCEAYGTYTLAPTGEGEYDDYWGQGTQVMVS
notes: the mutated chain is in PDB 7ZMS; numbers count on: IMGT numbering; G4 and G5 constructs were amplified from the synthesised DNA fragments with a different set of primers; source: E. coli KRX, purified (Ni-NTA, TEV cleavage, reverse Ni-NTA); not shown: MBP (inferred from the G3 scaffold), N-terminal, cleaved; His6 (inferred from the G3 scaffold), N-terminal, cleaved
As for B5, the binding result in test [3] is given as “binds”.

B6: RECQL5 nanobody variant G3-052 (VHH)
VHH: B5 VHH with T15G, Q81Y, M122T
notes: the mutated chain is in PDB 7ZMO; numbers count on: IMGT numbering; synthesised DNA in pNIC-MBP2-LIC; no ENLYFQ tail; source: E. coli KRX, purified (Ni-NTA, TEV cleavage, reverse Ni-NTA); not shown: MBP, N-terminal, cleaved; His6, N-terminal, cleaved
Turning to B6, the binding result in test [3] is recorded as “binds”.

B7: RECQL5 nanobody variant G3-048 (VHH)
VHH: B5 VHH with M122T
notes: the mutated chain is in PDB 7ZMN; numbers count on: IMGT numbering; synthesised DNA in pNIC-MBP2-LIC; no ENLYFQ tail; source: E. coli KRX, purified (Ni-NTA, TEV cleavage, reverse Ni-NTA); not shown: MBP, N-terminal, cleaved; His6, N-terminal, cleaved
B7: in test [3], the binding result is “binds”.

B8: RECQL5 nanobody variant G2*-011 (VHH)
VHH: B5 VHH with T15G, R19K, D61Y, S73N, G76N, M122T
notes: the mutated chain is in PDB 7ZMR; source: E. coli KRX, purified (Ni-NTA, TEV cleavage, reverse Ni-NTA); not shown: MBP (from the vector pNIC-MBP2-LIC), N-terminal, cleaved; His6 (from the vector pNIC-MBP2-LIC), N-terminal, cleaved
Turning to B8, the binding result in test [3] was “binds”.

B9: RECQL5 nanobody variant G2*-006 (VHH)
VHH: B5 VHH with C11N, T15G, D61Y, S73N, G76N, M122T
notes: the mutated chain is in PDB 7ZMQ; source: E. coli KRX, purified (Ni-NTA, TEV cleavage, reverse Ni-NTA); not shown: MBP (from the vector pNIC-MBP2-LIC), N-terminal, cleaved; His6 (from the vector pNIC-MBP2-LIC), N-terminal, cleaved
Consider B9, for which the binding result in test [3] was “binds”.

B10: YNMAGEB1A-c001 (VHH)
VHH: QVQLQESGGGLVQAGGSLRLSCAASGFTFDDYAIGWFRQVPGKEREGVSCTSSSVGSTYYADSVKGRFTITSDNAKNTVYLQMNSLKPEDTAVYYCAADSYPYGSTWCRPPFFASWGQGTQVTVS
Consider B10, for which the binding result with MAGEB1 [5] was “binds”.
